From US9611297 (THRASOS THERAPEUTICS, dated 2017) come the findings set out here.

Assay [1] deals with T1, human uromodulin (human, UniProt P07911 25-614). Description: competition ELISA; biotin-uromodulin + peptide on coated light chain BER (competitor). The protocol: (§1) Enzyme-linked immunosorbant assays (ELISA) were performed on the disclosed peptides. Plates were coated with the following light chain clones overnight at 4° C.: 0.05 uM BER (subtype lambda, isolated from SP2/0 cells), 0.2 uM ROC (subtype kappa, isolated from CHO cells), and 0.3 uM BEN (subtype lambda, isolated from CHO cells). The plates were washed and treated with bovine serum albumin (BSA) overnight at 4° C. For peptide plates, 10 nM biotin-uromodulin was mixed with peptide overnight at 4° C.

For assay [2], the target named is T1, human uromodulin. In words: competition ELISA; biotin-uromodulin + peptide on coated light chain ROC (competitor). The protocol: as §1
On the technique in general: In an ELISA, binding on a coated surface is turned into a signal by an enzyme label.

Positions of bridges follow the written chain, without caps; N, C: chain ends. Non-standard residues stand in square brackets, D forms with d. No end group written: not given here.

What is called IC50 is the concentration that inhibits the measured activity by half.

B1: SEQ ID No. 47 (peptide)
peptide: [dK][dK]CQQS[dY]SIPYTC[dK][dK]
modifications: disulfide 3-13 (inferred)
notes: synthetic; disulfide bridge formed per general procedure; also called K*K*CQQSY*SIPYTCK*K*
Regarding B1, the half-maximal inhibitory concentration (IC50) in assay [1] came out at 32.3 µM; in assay [2] it was 33.5 µM.
